Experiment: soluble on expression in E. coli; label from the status in PepcDB or PDB records

Sequence	soluble on expression in E. coli
MHVLDLFKIEGKTAIVTGGGRGLGEQIAVGLAEAGANVVVCSRKVEACEQVKEKLEQLGVRSLALRCDVTNPEEVKHVVETTVKEFGGIDILVNNSGATWGAPVEEMPLEAWQKVINVNVTGTFLMSQAVGKVMIAKQTGGSIINIASVAGLGGTHPDILNTIGYNTSKGAVITFTRDLAAKWGKHGIRVNAVAPGFFPTKMSKVVLERVGKKVLEHTPLGRFGGEDDLKGAVLFLASPASAFVTGALLVVDGGSHATGI	soluble
MIAGPLGRASELHRYEGNQTVVFCAGGVGLPPVYPIMREHLRLGNHVTLISGFRAKEFLFWTGDDERVGKLKKEFGDQLSLIYTTNDGSYGVKGFVTGPLEEMMKANQEGKGRSIAEVIAIGPPLMMRAVSDLTKPYGVKTVASLEHHHHHH	not soluble
MIAHSVDDPFYYLHNFRQVVLWVEQRYQDLLDDQELAFIRAFSQLQAPAQALMVRMVMRKGELFRSDRLDYAEIGDTALALQPLLALGWVREPEQLDLEQLFALLRKEELARCFARQLNRPRAAKHELLAQLQPLALAARSLVEWFPDSDVRILQWCLQPLCDRIRLLFFGNLYQDWSDFVLADLGLLRYEQVPFSPDSRALQQRDDVDLAMALHHCAERLEQGGDPLPILATLQGLHSSNPWLARRHARLQFAVGQQCERLGEWDLATAVYAQCNHPQARIRQVRVLERSEQWHQAHARALQLAAAPANALEEQALQRMLPRLARKLGGPPQRRQRTTPLELIELELPRGDAALGVEEAVRQHLMQEGGQAHYVENTLFNSLFGLLCWEAIFAPVPGAFFNPFQAAPQDLHDSDFQQRRSALFERCLGRLDEGSHRQAILDCYVAKQGLQSPFVSWSMLSEELLEQALACLPAAALKQCFLRLLQDIRSNRAGMPDLIQFWPEQGRYRMVEVKGPGDRLQDNQLRWLAFCRQHGLPVAVCHVRWSET	not soluble
MIAIVAGNSAGVSRVANQPLEHEPSYWAATAEIEQPSPALEHDLDVDVAIIGAGYTGLSTAYHLKKDHGITATVVEANRIGWGCSGRNGGFAMIGVGKDTYNAWISKVGLEQARKTFEFGRDAVRTLRTVLQENNINAASGNEGFLLTAHRRARISELIETQRQLKHYFGFDTEYLDAHDVRTHYLSGTQIFGALHYPEHFPIHPMRYAQGLGRRVRQLGVPIYENSPVNTWRRAGRLHELLTPRGVVRAKKVVIATNGYTPDGLHPIVRGRLMNVLSNIVVTAPLSEGQLAATRWQTHKMVVDTRNLRSYFRLLEDNRIMFGARGGISDTAASRATMKAWLLTQLAKQFPGLGAIGADYFWQGWVAIPRDKGPHIHVADNGSVAYWLGCTGTGVAMSTHAGKLLADSLATERRPDVPALVGAPLPRYEIPALRKLYQRAAYSYFYLKDEFLLEHHHHHH	not soluble
MIAQQFNRARHILRHNLVRPFYQPKFYLESGKLAGFEALLRWYDEDNQIQLPKLIINAFEDYSLASRLSEKMQLNIFKDMASWINQGLQLVPVSINAAPVEFLKDNYAELLLERLNQFEIPYHLIEIEITEHLLDDQGKNFISRALAKLKQNGIRIALDDFGTGHSSLTRLANLPVDCLKIDCDFVQRMEQEKFISALVQSVILMSNNLGIDVVAEGIESQEQLELLKQQGCEVGQGFLFSQA	not soluble
MIAVQRAVESRSIPPKAIVPVYVATSRMIQNNYSQPYGAERSNKVHYNRVDVGIPQKHVKGVVETNAYKPTHDKYFAAVALQKYDNKEQFKQQLNADLEKKTPGKREIFLFIHGYNNNFADGTFRTAQFTYDYSLNVVTVHYSWPSAGSVPLYIYDRDSANFARDGLIELLTLISETKADQISVIAHSMGNFVIMEAFRTLALQGKYKPIQRITSFLMAAPDIDIDVFERQLNDIKKLPQPTAILVSRADKALAVSGRLTGGHHRVGDGSDIEMLRKNGIAVLDFSNVDGGAHNVFASSPTLMALAREGSLASTIMQGTELSPSQALLADSSSVLEKTTHLILYTPLRLLSPLTRQ	not soluble
MICFCAERFQWRRLWQIPGDLLFPGPADMARALLYRRPTEPSTIPVRHGSQFFAVRIRRHRRARRYTLRIHPSDREAILTMPPRGTLADAKEFAQRHGAWIAARLGRLPKAAPFLPGTLVPLRGHDHKIVHRTGRGTVWTEVRESGEKILCVAGETEHIERRVLDFLKREARKDLQKACDRYAPELGVKVTRLSIRDQSSRWGSCTSAGSLSFSWRLILAPSYVLDYLAAHEVAHLVEMNHSARFWRVVGKVCPQMERAKTWLDSYGNDLHRYGISDLEHHHHHH	soluble
MICHQCPDRHDSLEEETMNAYSPPTLLQLARQKLLREEALAISALKDLPRELLPEMFEEAFTDECTKTLRAMIPMWPFPCLPVGTLIKNPNLETLKAVLEGLDILLAPKVRSSRCKLRVLNLRNEHHEFWRIWAGSHEDECLPQLTQKQPVENSPDCGVKKHLQVTTDFELTKGRLDESATYLLQWAEQRKDSIHLCCRKLQIQGLSKDAFIEIFKIIDANCVQELELSCIWEEELPFLNPYLRQMKNLLTLKLDDITEVTMDGDDLFDEKKRRKLISQLFSFYCLQNLYVDGTFAEGNMIECLRYLKKPLETLCLRYCFLSQTDLDYLPHCLNICKLKHLSLSYIYLFNLFLEPLGILLERVRDTLQTLELQLCGLTDRHFSVLLPALSQCSHLTKINFYENTISLPVLKQLSYHTANLSQLTQEQYPAPQECYDNMRGVETHRLGNICTELLDILRAKRQPERVAFATSRCIKCRGFLVYDLETQRCFFQH	not soluble
MIDERLKKDLAILPISTVRALTNLSDRQIRYYESQDLLTTKRGKGGQRRFSLNDVERLIEIRMMMESGDSLKDIHNLYETHRVSNRRNEKTEFVHSLENEFLKIGRLEKH	not soluble
MIDLHTHTIFSDGELIPSELVRRAVIHGYEAIALTDHADYTNLEQLLDAAKKAKYLEEEWDIRVLSGVELTHVPPRKIAPMAKKAKELGAEIVVVHGETISEPVAQGTNAASAACEYVDILAHPGLISEEDVRTAAENNVFLELTARNGHNRTNGHVARLALEFGATLVVNTDTHAPENLITDETALKIAMGAGL	not soluble
MIDLSTEFAGLRLKNPIVAASSGLTRNLKTIKDLEAAGVAAIVLKSLFEEQIEAEMSQMMSPMDYPEAADYINAYVQSNEISKHLDFLREVKREVAIPVIASINCFRSDSWVDFAKQFEEAGADALEINVMRLNTDLFFDANKAEQMYVDIISSLIKAIRIPVVVKLSKSFANIPSLVDKLRAAGAKGVVLFNRSYQPDIDIDKVQMVAGDVFTSAGEISDTIRH	not soluble
MIDVLLGADDGSLAFVPSEFSCSPGCKIVFKNNAGFPHNIVFDEDSIPSGVDASKISMSEEDLLNAKGETFEVALSNKGEYSFYCSPHQGAGMVGKVTVN	soluble
MIDVPFLKNVTLKKENIPSFSAYPYCLPAIRTLQSLAFHPNVTFIIGENGTGKSTLLEGIAIALGFNAEGGTKNFRFSTNDSHSSLHEYLRISKSFNTPSDGFFLRAESFYNVASYIDEIDADLEARGNPVIDSYGGISLHEQSHGESFFSLFMNRFSGQGLYILDEPEAALSPMRQLSMLIRMHELAEQGSQFVIATHSPILMAYPESTIYSLTQEGIQESALEDTEHYQTTKLFFENRDRLFHHLFNSLEHHHHHH	soluble
MIDVRKYIDNAALKPHLSEKEIEEFVLKSEELGIYAVCVNPYHVKLASSIAKKVKVCCVIGFPLGLNKTSVKVKEAVEAVRDGAQELDIVWNLSAFKSEKYDFVVEELKEIFRETPSAVHKVIVETPYLNEEEIKKAVEICIEAGADFIKTSTGFAPRGTTLEEVRLIKSSAKGRIKVKASGGIRDLETAISMIEAGADRIGTSSGISIAEEFLKRHLILEHHHHHH	soluble
MIEADYLVIGAGIAGASTGYWLSAHGRVVVLEREAQPGYHSTGRSAAHYTVAYGTPQVRALTAASRAFFDNPPAGFCEHPLLSPRPEMVVDFSDDPEELRRQYESGKALVPQMRLLDAEQACSIVPVLRRDKVFGATYDPTGADIDTDALHQGYLRGIRRNQGQVLCNHEALEIRRVDGAWEVRCDAGSYRAAVLVNAAGAWCDAIAGLAGVRPLGLQPKRRSAFIFAPPPGIDCHDWPMLVSLDESFYLKPDAGMLLGSPANADPVEAHDVQPEQLDIATGMYLIEEATTLTIRRPEHTWAGLRSFVADGDLVAGYAANAEGFFWVAAQGGYGIQTSAAMGEASAALIRHQPLPAHLREHGLDEAMLSPRRLSPLEHHHHHH	not soluble
MIEFHNVHKTYRVAGKEIPALHPTNLRVDDGQVFGIIGHSGAGKSTLLRLINRLETPSGGQIVVDGEDVTALDANGLRRFRQQVGMIFQHFNLLASRTVADNVAMPLTLAGDMPRKQIDQRVAELLERVGLSDHAKKYPAQLSGGQKQRVGIARALATKPKILLCDEATSALDPQTTASVLQLLAEINRELKLTIVLITHEMDVIRRVCDQVAVMDAGVIVEQGKVADVFLHPQHSTTKRFVQEDDQVDENEQRDDFAHVQGRIVRLTFQGDATYAPLLGTVARETGVDYSILAGRIDRIKDTPYGQLTLAITGGDMDAAFARFTAADVHMEVLR	not soluble
MIEGIIEEIRTNGSFLITTHENPDGDAVGSSLALAGYLRRLGKDVTIHFCDPVPDLYAFLPLAEEVTRTVPDRDYDICFVLDVGEFRRAGKQIAECKRIKKFINIDHHLTSDNFGFINYIDPKAAATGILVHRIITGAGDVVGYETALCLYTAIITDTGSFRYSNANPEAFAIAGELVSTGINTWSIAEKLYESQPRERLELLALALSTLTISPRGEYASITVTLDMYNKTGASAELTDGFVNYPRSIRGVEVSVFFREINPGLFKVGFRSKGKIDVSRIAAAFGGGGHHNAAGATMNGSLEGIKATLFSHLESTLLEHHHHHH	not soluble
MIELKEVVKEYRTKNKEVLAVDHVNLSIRAGSIYGVIGFSGAGKSTLIRMFNHLEAPTSGEVIIDGDHIGQLSKNGLRAKRQKVNMIFQHFNLLWSRTVLKNIMFPLEIAGVPRRRAKQKALELVELVGLKGREKAYPSELSGGQKQRVGIARALANDPTVLLCDEATSALDPQTTDEILDLLLKIREQQNLTIVLITHEMHVIRRICDEVAVMESGKVIEHGPVTQVFENPQHTVTKRFVKEDLNDDFETSLTELEPLEKDAYIVRLVFAGSTTTEPIVSSLSTAYDIKINILEANIKNTKNGTVGFLVLHIPYISSVDFGKFEKELIERQVKMEVLRHG	not soluble
MIETAIYGKTVDDQSRCVHWHLPKDVIAIRFKCCDKYYACFECHQELSSHPLEKYDLLDDANKHLIICGVCRHEMTFAEYYDYNSNLICPNCRSPFNPGCKLHYHLYFQNPPPAMC	not soluble
MIEYTSGDILRCEADALVNTVNCVGVMGRGIALQFKNMYPANFKAYEAACKREEVQPGRMFVFETKQLTPPRLIINFPTKRHWRGKSRIEDIEAGLVDLVNVIRDKNIRSIAIPPLGAGLGGLDWKEVRPRIEHALGELEGVQVIVYEPNGAPASDKMAHVREVPKMTSGRAALVELMQRYLSGLLDPFVTLLEVHKLMYFMQEAGEPLRLDYIKHHYGPYAKNLRHVLNAIEGHLIAGYADGGDAPDKPLSLVPGAVAEAKSFLDQHEISRARFERVTRLVEGFESPYGLELLATVHWVIHREGATQSDSVKRQIYQWNDRKRQFTQRQLVIAEERLRSQGWLSPETTFTYMAGDPLEHHHHHH	not soluble
MIFDKNFSYAFDENACEKCGGKCCTGESGNIFASKEELEVLRKHLNLESKEFAEKYLRKVGFKMSFKEVECEDGFACIFFDTQKRNCSIYDFRPKQCRTFPFWEYFKTHQKELEKECIGICYLSLEHHHHHH	not soluble
MIFEKAVIVDLRTQVLDVPVQETITKDNVPVRVNAVVYFRVVDPVKAVTQVKNYIMATSQISQTTLRSVIGQAHLDELLSERDKLNMQLQRIIDEATDPWGIKVTAVEIKDVELPAGMQKAMARQAEAERERRARITLAEAERQAAEKLREAAEIISEHPMALQLRTLQTISDVAGDKSNLEHHHHHH	soluble

Reference: the DeepSol protein solubility set
